Laboratory results from the Immune Epitope Database (IEDB).
One block for each sequence: values may come before it.

What was measured:
[1] = target: HLA-B*58:01; assay: IEDB peptide-MHC binding, purified MHC/competitive/fluorescence; filed as Kd, often an IC50 or EC50 that approximates it; ≥ and ≤ were set here for values at or beyond the usual limits of such assays
[2] = target: HLA-B*51:01; assay: as above
[3] = target: HLA-B*15:01; assay: IEDB peptide-MHC binding, purified MHC/direct/fluorescence; filed as Kd, often an IC50 or EC50 that approximates it; ≥ and ≤ were set here for values at or beyond the usual limits of such assays
[4] = target: HLA-B*46:01; assay: as above; conditions: source organism: Giardia lamblia ATCC 50803
[5] = target: HLA-B*07:02; assay: as above
[6] = target: HLA-C*05:01; assay: as above
[7] = target: HLA-A*24:02; assay: IEDB peptide-MHC binding, purified MHC/competitive/fluorescence; ≥ and ≤ were set here for values at or beyond the usual limits of such assays; conditions: source organism: Zaire ebolavirus
[8] = target: HLA-B*08:01; assay: as above
[9] = target: HLA-B*07:02; assay: as above
[10] = target: HLA-A*02:01; assay: as above; conditions: source organism: Zaire ebolavirus
[11] = target: HLA-A*24:03; assay: IEDB peptide-MHC binding, purified MHC/competitive/fluorescence; filed as Kd, often an IC50 or EC50 that approximates it; ≥ and ≤ were set here for values at or beyond the usual limits of such assays
[12] = target: HLA-A*30:01; assay: IEDB peptide-MHC binding, purified MHC/direct/fluorescence; filed as Kd, often an IC50 or EC50 that approximates it; ≥ and ≤ were set here for values at or beyond the usual limits of such assays
[13] = target: HLA-A*24:03; assay: as above
[14] = target: HLA-B*27:05; assay: as above
[15] = target: HLA-A*26:01; assay: as above
[16] = target: HLA-A*03:01; assay: as above
[17] = target: HLA-A*11:01; assay: as above
[18] = target: HLA-B*44:02; assay: as above
[19] = target: HLA-B*58:01; assay: as above
[20] = target: HLA-B*08:01; assay: as above
[21] = target: HLA-B*40:01; assay: as above
[22] = target: HLA-A*01:01; assay: as above
[23] = target: HLA-A*31:01; assay: as above
[24] = target: HLA-A*69:01; assay: as above
[25] = target: HLA-A*02:01; assay: as above
[26] = target: HLA-C*15:02; assay: as above
[27] = target: HLA-B*27:03; assay: IEDB peptide-MHC binding, purified MHC/competitive/fluorescence; filed as Kd, often an IC50 or EC50 that approximates it; ≥ and ≤ were set here for values at or beyond the usual limits of such assays; conditions: source organism: Homo sapiens
[28] = target: HLA-A*26:01; assay: as above; conditions: source organism: Homo sapiens
[29] = target: HLA-B*39:01; assay: as above
[30] = target: HLA-B*18:01; assay: as above; conditions: source organism: Homo sapiens
[31] = target: HLA-B*15:01; assay: as above
[32] = target: HLA-B*46:01; assay: as above; conditions: source organism: Homo sapiens
[33] = target: HLA-B*57:01; assay: as above; conditions: source organism: Homo sapiens
[34] = target: HLA-A*69:01; assay: as above; conditions: source organism: Homo sapiens
[35] = target: HLA-A*03:01; assay: as above; conditions: source organism: Escherichia coli B171
[36] = target: HLA-A*01:01; assay: as above; conditions: source organism: Escherichia coli B171
[37] = target: HLA-A*03:01; assay: IEDB peptide-MHC binding, purified MHC/competitive/fluorescence; ≥ and ≤ were set here for values at or beyond the usual limits of such assays
[38] = target: HLA-A*11:01; assay: as above; conditions: source organism: Zaire ebolavirus
[39] = target: HLA-B*15:01; assay: as above
[40] = source organism: Escherichia coli str. K-12 substr. MG1655
[41] = source organism: Giardia lamblia ATCC 50803
[42] = source organism: Zaire ebolavirus
[43] = source organism: Escherichia coli O157:H7
[44] = source organism: Brucella melitensis
[45] = source organism: Escherichia coli B171
[46] = source organism: Pseudomonas aeruginosa
[47] = source organism: Pseudomonas aeruginosa UCBPP-PA14
[48] = source organism: Coxiella burnetii
[49] = source organism: Vaccinia virus Copenhagen
[50] = source organism: Bacillus anthracis str. A2012

Kd [1, 40]: 0.0083 µM
Kd [2, 40]: ≥ 20 µM
Sequence: LAWQRTLKW

Sequence: VLASGPGPF
Kd [3, 41]: 0.0184 µM
Kd [4]: ≥ 20 µM
Kd [5, 41]: 9.38 µM
Kd [6, 41]: ≥ 20 µM

Sequence: EVNSFKAAL
IC50 [7]: 33.2 µM
IC50 [8, 42]: ≥ 85.9 µM
IC50 [9, 42]: ≥ 139 µM
IC50 [10]: ≥ 236 µM

Sequence: VSSFQDILL
Kd ([1]; source organism: Influenza A virus (A/X-31(H3N2))): 0.687 µM

Sequence: KWGKKIILF
Kd ([11]; source organism: Bacillus anthracis str. A0488): 0.0003 µM

Kd [12, 43]: 0.0722 µM
Kd [13, 43]: ≥ 20 µM
Kd [14, 43]: ≥ 20 µM
Kd [15, 43]: ≥ 20 µM
Kd [16, 43]: 0.392 µM
Kd [17, 43]: 0.101 µM
Kd [3, 43]: ≥ 20 µM
Kd [18, 43]: ≥ 20 µM
Kd [19, 43]: ≥ 20 µM
Kd [20, 43]: ≥ 20 µM
Kd [21, 43]: ≥ 20 µM
Kd [5, 43]: ≥ 20 µM
Kd [22, 43]: ≥ 20 µM
Kd [23, 43]: ≥ 20 µM
Kd [24, 43]: ≥ 20 µM
Kd [25, 43]: ≥ 20 µM
Sequence: GITGGHIPK

Kd ([1]; source organism: Escherichia coli 536): 0.19 µM
Sequence: IQARPCDRW

Kd ([26]; source organism: Homo sapiens): 0.695 µM
Sequence: NAFHHPSAV

Sequence: RLWNGRRCR
Kd [12, 44]: 1.75 µM
Kd [13, 44]: ≥ 20 µM
Kd [14, 44]: 2.04 µM
Kd [15, 44]: ≥ 20 µM
Kd [16, 44]: 0.634 µM
Kd [17, 44]: 11.4 µM
Kd [3, 44]: ≥ 20 µM
Kd [18, 44]: ≥ 20 µM
Kd [19, 44]: ≥ 20 µM
Kd [20, 44]: ≥ 20 µM
Kd [21, 44]: ≥ 20 µM
Kd [5, 44]: ≥ 20 µM
Kd [22, 44]: ≥ 20 µM
Kd [23, 44]: 0.0615 µM
Kd [24, 44]: ≥ 20 µM
Kd [25, 44]: ≥ 20 µM

Kd [27]: ≥ 20 µM
Kd [28]: ≥ 20 µM
Kd ([29]; source organism: Homo sapiens): ≥ 20 µM
Kd [30]: ≥ 20 µM
Kd ([31]; source organism: Homo sapiens): ≥ 20 µM
Kd [32]: ≥ 20 µM
Kd ([2]; source organism: Homo sapiens): ≥ 20 µM
Kd [33]: ≥ 20 µM
Kd [34]: ≥ 20 µM
Kd ([22]; source organism: Homo sapiens): 0.0009 µM
Kd ([6]; source organism: Homo sapiens): 0.005 µM
Sequence: VTDTALAYF

Kd [35]: ≥ 20 µM
Kd [31, 45]: 0.796 µM
Kd [1, 45]: 1.02 µM
Kd [36]: 0.787 µM
Sequence: VSALRLFNY

Sequence: YQQLREAAT
IC50 [8, 42]: ≥ 183 µM
IC50 [10]: 29.7 µM

Sequence: TAKVKNEVN
IC50 [8, 42]: ≥ 365 µM

Kd [29, 40]: 0.0075 µM
Kd [26, 40]: ≥ 20 µM
Sequence: AKIEAPLLL

Kd [12, 46]: 0.0138 µM
Kd [13, 47]: ≥ 20 µM
Kd [14, 47]: ≥ 20 µM
Kd [15, 47]: ≥ 20 µM
Kd [16, 46]: 0.213 µM
Kd [17, 46]: 0.0487 µM
Kd [3, 47]: ≥ 20 µM
Kd [19, 47]: ≥ 20 µM
Kd [20, 46]: 10.6 µM
Kd [21, 47]: ≥ 20 µM
Kd [5, 47]: ≥ 20 µM
Kd [22, 46]: 2.36 µM
Kd [23, 46]: 0.265 µM
Kd [24, 47]: ≥ 20 µM
Kd [25, 46]: 11.5 µM
Sequence: YTFCRLNVK

Sequence: KGPDKLQVY
Kd [12, 48]: 12.3 µM
Kd [14, 48]: ≥ 20 µM
Kd [15, 48]: ≥ 20 µM
Kd [16, 48]: ≥ 20 µM
Kd [17, 48]: ≥ 20 µM
Kd [3, 48]: 2.42 µM
Kd [18, 48]: ≥ 20 µM
Kd [19, 48]: ≥ 20 µM
Kd [20, 48]: ≥ 20 µM
Kd [21, 48]: ≥ 20 µM
Kd [5, 48]: ≥ 20 µM
Kd [22, 48]: ≥ 20 µM
Kd [23, 48]: ≥ 20 µM
Kd [24, 48]: ≥ 20 µM
Kd [25, 48]: ≥ 20 µM

Sequence: LHPLARTAK
IC50 [37, 42]: 34.6 µM
IC50 [38]: 15.4 µM
IC50 [8, 42]: ≥ 277 µM
IC50 [9, 42]: ≥ 158 µM

Sequence: NTPVYKLDI
IC50 [9, 42]: ≥ 119 µM

Sequence: VGHMMVIFR
IC50 [37, 42]: ≥ 218 µM
IC50 [38]: 0.196 µM
IC50 [39, 42]: ≥ 1340 µM
IC50 [7]: ≥ 271 µM
IC50 [8, 42]: ≥ 185 µM
IC50 [10]: 3.68 µM

Sequence: FINKLNGAM
IC50 [39, 49]: 27.6 µM
IC50 [8, 49]: ≥ 138 µM

Sequence: IIAVARKHH
IC50 ([37]; source organism: Variola virus): 27.7 µM
IC50 ([39]; source organism: Variola virus): 27.2 µM
IC50 ([9]; source organism: Variola virus): 59.7 µM

Sequence: RAFSLYMTL
Kd [11, 50]: 0.0586 µM
Kd [26, 50]: 0.466 µM

Sequence: EKVQRQIQV
IC50 [8, 42]: ≥ 181 µM

Sequence: MASENSSAM
IC50 [39, 42]: 21.9 µM
IC50 [9, 42]: 28.4 µM
IC50 [10]: 12.1 µM
